± gives the standard deviation of the averaged measurements.
Test: total protein half-life in vivo (active degradation + dilution); higher = more stable protein
[1] = E. coli NCM3722 delta-clpP delta-lon delta-hslV, growth: N-lim chemostat, doubling time 6 h
[2] = E. coli NCM3722 delta-clpP, growth: N-lim chemostat, doubling time 6 h
[3] = E. coli NCM3722 delta-hslV, growth: N-lim chemostat, doubling time 6 h
[4] = E. coli NCM3722 delta-lon, growth: N-lim chemostat, doubling time 6 h
[5] = E. coli NCM3722 delta-smpB, growth: N-lim chemostat, doubling time 6 h
[6] = wild type E. coli NCM3722, growth: C-lim chemostat, doubling time 3 h
[7] = wild type E. coli NCM3722, growth: C-lim chemostat, doubling time 6 h
[8] = wild type E. coli NCM3722, growth: C-lim chemostat, doubling time 12 h
[9] = wild type E. coli NCM3722, growth: N-lim chemostat, doubling time 6 h
[10] = wild type E. coli NCM3722, growth: N-lim chemostat, doubling time 12 h
[11] = wild type E. coli NCM3722, growth: P-lim chemostat, doubling time 6 h
[12] = wild type E. coli NCM3722, growth: P-lim chemostat, doubling time 12 h

Sequence	total protein half-life in vivo [1] [h]	total protein half-life in vivo [2] [h]	total protein half-life in vivo [3] [h]	total protein half-life in vivo [4] [h]	total protein half-life in vivo [5] [h]	total protein half-life in vivo [6] [h]	total protein half-life in vivo [7] [h]	total protein half-life in vivo [8] [h]	total protein half-life in vivo [9] [h]	total protein half-life in vivo [10] [h]	total protein half-life in vivo [11] [h]	total protein half-life in vivo [12] [h]
MAINNTGSRRLLVTLTALFAALCGLYLLIGGGWLVAIGGSWYYPIAGLVMLGVAWMLWRSKRAALWLYAALLLGTMIWGVWEVGFDFWALTPRSDILVFFGIWLILPFVWRRLVIPASGAVAALVVALLISGGILTWAGFNDPQEINGTLSADATPAEAISPVADQDWPAYGRNQEGQRFSPLKQINADNVHNLKEAWVFRTGDVKQPNDPGEITNEVTPIKVGDTLYLCTAHQRLFALDAASGKEKWHYDPELKTNESFQHVTCRGVSYHEAKAETASPEVMADCPRRIILPVNDGRLIAINAENGKLCETFANKGVLNLQSNMPDTKPGLYEPTSPPIITDKTIVMAGSVTDNFSTRETSGVIRGFDVNTGELLWAFDPGAKDPNAIPSDEHTFTFNSPNSWAPAAYDAKLDLVYLPMGVTTPDIWGGNRTPEQERYASSILALNATTGKLAWSYQTVHHDLWDMDLPAQPTLADITVNGQKVPVIYAPAKTGNIFVLDRRNGELVVPAPEKPVPQGAAKGDYVTPTQPFSELSFRPTKDLSGADMWGATMFDQLVCRVMFHQMRYEGIFTPPSEQGTLVFPGNLGMFEWGGISVDPNREVAIANPMALPFVSKLIPRGPGNPMEQPKDAKGTGTESGIQPQYGVPYGVTLNPFLSPFGLPCKQPAWGYISALDLKTNEVVWKKRIGTPQDSMPFPMPVPVPFNMGMPMLGGPISTAGNVLFIAATADNYLRAYNMSNGEKLWQGRLPAGGQATPMTYEVNGKQYVVISAGGHGSFGTKMGDYIVAYALPDDVK	6.446 ± 0.039	7.31 ± 0.86	5.96 ± 0.15	6.58 ± 0.58	6.14 ± 0.11	3.18 ± 0.17	6.44 ± 0.37	13.8 ± 0.65	6.04 ± 0.28	13.4 ± 0.83	6.54 ± 0.22	13.69 ± 0.084
MAAIAFIGLGQMGSPMASNLLQQGHQLRVFDVNAEAVRHLVDKGATPAANPAQAAKDAEFIITMLPNGDLVRNVLFGENGVCEGLSTDALVIDMSTIHPLQTDKLIADMQAKGFSMMDVPVGRTSANAITGTLLLLAGGTAEQVERATPILMAMGSELINAGGPGMGIRVKLINNYMSIALNALSAEAAVLCEALNLPFDVAVKVMSGTAAGKGHFTTSWPNKVLSGDLSPAFMIDLAHKDLGIALDVANQLHVPMPLGAASREVYSQARAAGRGRQDWSAILEQVRVSAGMTAKVKM [P0A9V8]						> 4	4.77 ± 1.8					
MNFRRLKYFVKIVDIGSLTQAAEVLHIAQPALSQQVATLEGELNQQLLIRTKRGVTPTDAGKILYTHARAILRQCEQAQLAVHNVGQALSGQVSIGFAPGTAASSITMPLLQAVRAEFPEIVIYLHENSGAVLNEKLINHQLDMAVIYEHSPVAGVSSQALLKEDLFLVGTQDCPGQSVDVNAIAQMNLFLPSDYSAIRLRVDEAFSLRRLTAKVIGEIESIATLTAAIASGMGVAVLPESAARSLCGAVNGWMSRITTPSMSLSLSLNLPARANLSPQAQAVKELLMSVISSPVMEKRQWQLVS	6.26 ± 0.89	2.6 ± 0.032	0.485 ± 0.11	0.469	1.83 ± 0.15				0.978 ± 0.3	1.31 ± 0.14		
MAAQGFLLIATFLLVLMVLARPLGSGLARLINDIPLPGTTGVERVLFRALGVSDREMNWKQYLCAILGLNMLGLAVLFFMLLGQHYLPLNPQQLPGLSWDLALNTAVSFVTNTNWQSYSGETTLSYFSQMAGLTVQNFLSAASGIAVIFALIRAFTRQSMSTLGNAWVDLLRITLWVLVPVALLIALFFIQQGALQNFLPYQAVNTVEGAQQLLPMGPVASQEAIKMLGTNGGGFFNANSSHPFENPTALTNFVQMLAIFLIPTALCFAFGEVMGDRRQGRMLLWAMSVIFVICVGVVMWAEVQGNPHLLALGTDSSINMEGKESRFGVLVSSLFAVVTTAASCGAVIAMHDSFTALGGMVPMWLMQIGEVVFGGVGSGLYGMMLFVLLAVFIAGLMIGRTPEYLGKKIDVREMKLTALAILVTPTLVLMGAALAMMTDAGRSAMLNPGPHGFSEVLYAVSSAANNNGSAFAGLSANSPFWNCLLAFCMFVGRFGVIIPVMAIAGSLVSKKSQAASSGTLPTHGPLFVGLLIGTVLLVGALTFIPALALGPVAEYLS											5.85	
MKVLTVFGTRPEAIKMAPLVHALAKDPFFEAKVCVTAQHREMLDQVLKLFSIVPDYDLNIMQPGQGLTEITCRILEGLKPILAEFKPDVVLVHGDTTTTLATSLAAFYQRIPVGHVEAGLRTGDLYSPWPEEANRTLTGHLAMYHFSPTETSRQNLLRENVADSRIFITGNTVIDALLWVRDQVMSSDKLRSELAANYPFIDPDKKMILVTGHRRESFGRGFEEICHALADIATTHQDIQIVYPVHLNPNVREPVNRILGHVKNVILIDPQEYLPFVWLMNHAWLILTDSGGIQEEAPSLGKPVLVMRDTTERPEAVTAGTVRLVGTDKQRIVEEVTRLLKDENEYQAMSRAHNPYGDGQACSRILEALKNNRISL	4.18 ± 0.042	4.52 ± 0.26	4.56 ± 0.14	4.96 ± 0.82	3.55 ± 0.33	3.23 ± 0.27	5.8 ± 0.64	10.5 ± 2.5	4.16 ± 0.4	8.18 ± 0.94	6.17 ± 0.78	10.1 ± 1.9
MDVTAKYELIGLMAYPIRHSLSPEMQNKALEKAGLPFTYMAFEVDNDSFPGAIEGLKALKMRGTGVSMPNKQLACEYVDELTPAAKLVGAINTIVNDDGYLRGYNTDGTGHIRAIKESGFDIKGKTMVLLGAGGASTAIGAQGAIEGLKEIKLFNRRDEFFDKALAFAQRVNENTDCVVTVTDLADQQAFAEALASADILTNGTKVGMKPLENESLVNDISLLHPGLLVTECVYNPHMTKLLQQAQQAGCKTIDGYGMLLWQGAEQFTLWTGKDFPLEYVKQVMGFGA [P0A6D5]	4.77											
MNPVDRPLLDIGLTRLEFLRISGKGLAGLTIAPALLSLLGCKQEDIDSGTVGLINTPKGVLVTQRARCTGCHRCEISCTNFNDGSVGTFFSRIKIHRNYFFGDNGVGSGGGLYGDLNYTADTCRQCKEPQCMNVCPIGAITWQQKEGCITVDHKRCIGCSACTTACPWMMATVNTESKKSSKCVLCGECANACPTGALKIIEWKDITV [P0AAL6]								> 16				
MLKQVEIFTDGSCLGNPGPGGYGAILRYRGREKTFSAGYTRTTNNRMELMAAIVALEALKEHCEVILSTDSQYVRQGITQWIHNWKKRGWKTADKKPVKNVDLWQRLDAALGQHQIKWEWVKGHAGHPENERCDELARAAAMNPTLEDTGYQVEV [P0A7Y4]		6.46 ± 0.89					5.92 ± 0.082	9.26	4.7 ± 0.96		6.5 ± 0.82	
MPAPVVLILAAGRGECFLASGGNTHKCIGWRQSPEVAPYRWPFEENGRTFDLAIEPQITTNDLRLMLRLALAGGGITIATQETFRPYIESGKLVSLLDDFLPQFPGFYLYFPQRRNIAPKLRALIDYVKEWRQQLA	4.63											

From the supplement of paper PMC11246515
